PMC12891039
One block for each molecule: values may come before it.

How the values were obtained:
[1] = biological target: SEL1L S658P (mouse knock-in) (mouse (endogenous in MEFs and P0 liver)) (UniProt Q9Z2G6); assay: co-IP; IP of endogenous SEL1L from P0 mouse liver lysates (WT, Sel1L^S658P, Sel1L^L709P); same lysis buffer; DERL2 eluted with 0.1 M glycine pH 2.5; immunoblot with quantification
[2] = biological target: SEL1L S658P (mouse knock-in) (mouse (endogenous in MEFs and P0 liver)) (UniProt Q9Z2G6); assay: co-IP; IP of endogenous SEL1L (1 ug anti-SEL1L, Protein A agarose, overnight 4 C) from MEF lysates (WT, Sel1L^S658P, Sel1L^L709P, Sel1L^P699T, Sel1L^ERCre KO); 150 mM NaCl, 25 mM Tris-HCl pH 7.5, 0.2% NP-40, 0.1% Triton X-100; immunoblot, prey band normalised to bait
[3] = biological target: HRD1 (mouse) (mouse (endogenous in MEFs and P0 liver)) (UniProt Q9DBY1); assay: co-IP; reciprocal IP of endogenous HRD1 (anti-HRD1, Protein A agarose) from MEF lysates; same lysis buffer; immunoblot

reduction of HRD1 association against WT [1]: 80% | reduction of HRD1 binding against WT [2]: 60%
Molecule: HRD1 (mouse) (from UniProt Q9DBY1 1-612) (enzyme)

reduction of SEL1L–HRD1 binding against WT [3]: 60%
Molecule: SEL1L S658P (mouse knock-in) (from UniProt Q9Z2G6 22-790) (natural protein)

decrease of DERL2 interaction against WT [1]: 60%
B1: DERL2 (mouse) (natural protein)
chain: MAYQSLRLEYLQIPPVSRAYTTACVLTTAAVQLELITPFQLYFNPELIFKHFQIWRLITNFLFFGPVGFNFLFNMIFLYRYCRMLEEGSFRGRTADFVFMFLFGGFLMTLFGLFVSLVFLGQAFTIMLVYVWSRRNPYVRMNFFGLLNFQAPFLPWVLMGFSLLLGNSIIVDLLGIAVGHIYFFLEDIFPNQPGGIRILKTPSILRTIFDTPDEDPNYNPLPEERPGGFAWGEGQRLGG
